Entries after “also recorded” stand apart in the source; their conditions may differ.
Tests used:
[1] = system: KCM tumor cells; assay: NK cell specific lysis of tumor cells; format: cell-based, mouse; details: various E:T ratios
Text: FIGS. 4A and 4B are graphs showing that an exemplary antibody of the presently disclosed subject matter (TAB-004) enhanced the cytotoxicity of Natural Killer (NK) cells to kill target tumor cells.
(§1) The TAB-004 antibody alone or conjugated to CpG ODN bound to a tumor cell line (referred to herein as the “KCM” cell line; see FIG. 3) generated from the triple transgenic PDA.MUC1.Tg mice.

[2] = system: human pancreas and breast tumor tissue; assay: immunohistochemical staining of human tumor and normal tissue; format: binding; details: IHC
Text: FIGS. 1A and 1B are a series of photomicrographs depicting specific binding of an exemplary antibody of the presently disclosed subject matter to human and mouse pancreatic tumors. The dark staining in the panels is indicative of positive binding of the exemplary antibody to cells present in the sample. […] FIG. 1B is a series of photomicrographs depicting the binding of an exemplary antibody of the presently disclosed subject matter to spontaneous tumors present in the pancreas of 6, 16, 26, and 34 week old transgenic mice that carried a human MUC1 transgene and a K-ras^G12D mutation.
FIGS. 2A and 2B are a series of photomicrographs depicting specific binding of an exemplary antibody of the presently disclosed subject matter (i.e., a horse radish peroxidase (HRP)-labeled TAB-004 anti-MUC1 monoclonal antibody) to human breast tumor tissue. […]
Epitope screening determined that the TAB-004 monoclonal antibody (mAb) described herein bound to an epitope present within SEQ ID NO: 3. […]

[3] = system: human breast cancer cell lines; assay: flow cytometry of breast cancer cell lines with TAB-004 conjugated to Cy7; format: cell-based; details: Cy7 conjugate
Experimental: FIG. 13 is a series of plots of flow cytometric analyses of TNBC cell lines stained with a Cy7-conjugated TAB-004 monoclonal antibody (1 μg/sample). Compared to isotype control (solid trace in each panel; red lines in color photo), all cell lines expressed high to moderate levels of tMUC. MDA-MB-231 is mesenchymal in phenotype and loses MUC1 in vitro while Hs578T is a mesenchymal stem-like carcinosarcoma that has low expression of tMUC (depicted with dashed lines in each panel).
A 45-panel human breast cancer cell lines were tested for tMUC expression with TAB-004 conjugated to Cy7 and flow cytometry. […] In particular, apart from those with a mesenchymal phenotype, all cell lines expressed high levels of tMUC.

[4] = molecular target: T1, mutated K-ras (Mus musculus, UniProt P32883, G12D); assay: staining of tumor tissues expressing the K-ras mutation but not human MUC1; format: binding
T1 construct: from tissue; host or cells: tumour tissue expressing the K-ras mutation but not human MUC1

[5] = system: CTCs; assay: […] measurement of MUC1-expressing CTCs; format: cell-based, human; details: 7.5 ml blood spiked with PANC1 cells
Experimental: Both breast and pancreatic primary and metastatatic tumors express high levels of tumor-associated MUC1 recognized by the TAB-004 antibody of the presently disclosed subject matter. Therefore, CTCs in these patients should be recognized by the TAB-004 antibody. In preliminary experiments, levels of MUC1 were assessed using the TAB-004 antibody. First, the ability to use the Veridex […]® system to measure MUC1-expressing CTCs using 7.5 ml blood samples (analogous to human samples) spiked with PANC1 cells, which are a human pancreatic cancer cell line was tested. Approximately 90% of the CTCs (EpCAM+ cells) expressed MUC1. […] Therefore, using the TAB-004 antibody appears to accurately detect micrometastases in pancreatic and breast cancer patients.

[6] = system: KCM pancreatic cell line; assay: binding to KCM pancreatic cell line; format: cell-based, mouse
Text: FIG. 3 is a schematic (upper left panel) showing an approach for creating a triple transgenic mouse line that expresses the Cre recombinase throughout the pancreas, a mutated K-ras oncogene polypeptide, and a human MUC1 polypeptide. This mouse develops pancreatic adenocarcinoma, cells of which were used to generate the primary tumor cell line KCM (lower panel). The KCM cell line was used to test the binding of an exemplary antibody of the presently disclosed subject matter (denoted in the Figure as “TAB” and in the instant disclosure as “TAB-004”) either alone or conjugated to CpG oligodeoxynucleotides (CpG ODN).
as §1

B1: TAB-004: mAb of the IgG isotype produced by hybridoma ATCC PTA-11550; binds tumor-specific epitope of human MUC1 (antibody, V domains shown)
VH: EVQLQQSGGERATPGASVKMSCKTSGYTFTNYWMHWVKQRPGQGLEWIGYINPSSGYTQYNQKFKDKATLTADKSSSTAYIQLSSLTSEDSAVYYCSTYYGDYLFPYWGQGTLVTVSA
VL: DVLMTQTPLSLPVSLGDQASISCRSSQDIVYGNGNTYLEWYLQKPGQSPKLLIYKVSNRFSGVPDRFSGSGSGTDFTLKISRVEAEDLGVYYCFQGSHVPYTFGGGTKLEIKR
- specific lysis of tumor cells by NK cells [1]: enhanced specific lysis of KCM tumor cells
- staining of normal tissue [2]: did not bind appreciably to normal pancreas or breast tissue; also recorded: did not bind to normal tissue
- staining of tumor tissue [2]: reacted strongly with tumor tissue; also recorded: strongly stained
- staining of breast cancer cell line subtypes ([3]; 45-panel): stained strongly
- staining of MDA-MB-231 cell line [3]: stained weakly
- cross reactivity with mutated K-ras [4]: cross reacted with mutated K-ras
- CTCs (EpCAM+ cells) expressing MUC1 [5]: Approximately 90%
- binding to KCM cell line [6]: bound to the KCM pancreatic cell line with equal affinity
